{"source": "patent US20170037133A1", "key": {"CD112 (Nectin-2, PVRL2)": {"target": "CD112 (Nectin-2, PVRL2) (UniProt Q92692)", "sequence (Q92692 32-538 limits assumed)": "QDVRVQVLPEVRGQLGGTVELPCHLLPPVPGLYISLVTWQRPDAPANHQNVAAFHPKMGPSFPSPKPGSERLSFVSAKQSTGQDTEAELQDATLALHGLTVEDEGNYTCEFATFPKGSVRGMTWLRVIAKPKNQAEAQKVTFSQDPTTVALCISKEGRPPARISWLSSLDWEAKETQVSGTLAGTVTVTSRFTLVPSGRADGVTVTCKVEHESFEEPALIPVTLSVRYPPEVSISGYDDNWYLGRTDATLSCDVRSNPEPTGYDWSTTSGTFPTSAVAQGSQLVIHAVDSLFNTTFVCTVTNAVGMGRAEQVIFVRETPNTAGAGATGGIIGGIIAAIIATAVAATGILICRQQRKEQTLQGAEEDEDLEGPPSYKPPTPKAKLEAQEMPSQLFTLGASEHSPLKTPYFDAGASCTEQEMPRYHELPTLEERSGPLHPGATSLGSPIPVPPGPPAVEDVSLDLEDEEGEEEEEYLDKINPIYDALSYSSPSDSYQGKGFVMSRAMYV", "experiment": "cell-based or functional assay"}, "CD155 (PVR)": {"target": "CD155 (PVR) (UniProt P15151)", "sequence (P15151 21-417 limits assumed)": "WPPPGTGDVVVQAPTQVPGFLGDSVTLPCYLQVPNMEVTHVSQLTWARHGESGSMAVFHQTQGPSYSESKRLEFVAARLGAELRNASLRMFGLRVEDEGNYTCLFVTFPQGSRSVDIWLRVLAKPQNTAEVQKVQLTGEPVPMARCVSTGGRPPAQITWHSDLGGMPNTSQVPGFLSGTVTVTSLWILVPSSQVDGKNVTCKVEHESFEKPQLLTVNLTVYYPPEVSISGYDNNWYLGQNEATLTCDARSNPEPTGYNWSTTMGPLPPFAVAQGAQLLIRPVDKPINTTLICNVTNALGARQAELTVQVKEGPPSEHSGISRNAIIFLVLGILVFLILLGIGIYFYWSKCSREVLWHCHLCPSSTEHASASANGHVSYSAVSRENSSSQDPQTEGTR", "experiment": "cell-based or functional assay"}}}
{"substance": "mouse anti-PVRL2 clone L14 (antibody)", "values": [{"measurement": "MV4-11 cell lysis in the presence of 0.1 ng/ml AMG 330", "setting": "CD112 (Nectin-2, PVRL2)", "value": 57.9, "unit": "%"}, {"measurement": "cell kill of MV4-11 (7-AAD positive target cells, 24 h co-culture with PBMCs, no AMG 330)", "setting": "CD112 (Nectin-2, PVRL2)", "value": 40.4, "unit": "%"}]}
{"substance": "mouse anti-PVR clone D171 (antibody)", "values": [{"measurement": "MV4-11 cell lysis in the presence of 0.1 ng/ml AMG 330", "setting": "CD155 (PVR)", "value": 49.7, "unit": "%"}, {"measurement": "cell kill of MV4-11 (7-AAD positive target cells, 24 h co-culture with PBMCs, no AMG 330)", "setting": "CD155 (PVR)", "value": 33, "unit": "%"}]}
